Experimental data: patent US11278600B2, “Human alpha-galactosidase variants” (Codexis, Inc., priority 2014, dated 2022)

How the values were obtained:
Type in all cases: biochemical
[1] = HTP-analysis of yeast culture supernatants, no challenge (MUGal hydrolysis); details: activity of the variant/activity of Rd3BB (SEQ ID NO: 13), yeast culture supernatant
Summary of the method: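 Activity read as 4-methylumbelliferyl α-D-galactopyranoside hydrolysis: fluorescence (355/448 nm) after sodium carbonate stop, following 30-180 min at 37° C with 2 mM MUGal stock at pH 4.6–4.8. Enzyme source is unchallenged culture supernatant of INVSc1 yeast expressing GLA variants, grown 66-84 h at 30° C.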

[2] = HTP-analysis of supernatants pretreated with base (MUGal hydrolysis); details: challenge at pH 8.2; activity of the variant/activity of Rd3BB (SEQ ID NO: 13); yeast culture supernatant
Summary of the method: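 Supernatants from INVSc1 yeast expressing GLA variants (SD-Ura, 66-84 h, 30° C) were mixed with McIlvaine buffer pH 7.0-8.2 or 200 mM sodium bicarbonate pH 9.1-9.7 and held 1-18 h at 37° C. Residual activity was then measured on MUGal at pH 4.8/4.3, 37° C, 30-180 min, by fluorescence (Ex 355/Em 448 nm).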

[3] = HTP-analysis of supernatants pretreated with acid (MUGal hydrolysis); details: challenge at pH 4.0; activity of the variant/activity of Rd3BB (SEQ ID NO: 13); yeast culture supernatant
Summary of the method: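 Yeast INVSc1 supernatant, GLA variants; acid challenge: McIlvaine pH 3.3-4.3, 37° C., 1-3 h. Assay: MUGal in McIlvaine pH 4.8 plus citrate pH 4.3, 37° C., 30-180 min, Na2CO3 stop, Ex 355/Em 448 nm.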

[4] = HTP-analysis of supernatants pretreated with bovine serum (MUGal hydrolysis); details: activity of the variant/activity of Rd3BB (SEQ ID NO: 13), yeast culture supernatant
Summary of the method: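 Yeast INVSc1 culture supernatants containing secreted GLA variants were mixed with bovine serum (20:80) and held 1 h at 37° C. Serum-treated samples then reacted with MUGal (4 mM stock) in citrate/McIlvaine buffer (pH 4.3/4.8) for 180 min at 37° C., were quenched with sodium carbonate, and read by fluorescence (Ex 355, Em 448 nm).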

Molecule | Relative Activity of GLA Variants After No Challenge (NC) [1] | Relative Activity of GLA Variants After Challenge at pH 8.2 [2] | Relative Activity of GLA Variants After Challenge at pH 4.0 [3] | Relative Activity of GLA Variants After Challenge with Serum [4]
348 (protein, Synthetic Polypeptide sequence of Variant No. 348 of mature Human GLA) LDNGLARTPTMGWLHWERFMCNLDCQEEPDSCISEKLFMEMAERMVSEGWKDAGYEYLCIDDCWMAPQRDSEGRLQADPQRFPHGIRQLANYVHSKGLKFGIYADVGNKTCAGFPGSFGYYDIDAQTFADWGVDLLKFDGCYCDSLENLADGYKHMSLALNRTGRSIVYSCEWPLYMWPFQKPNYTEIRQYCNHWRNFADIDDSWASVKSILDWTSFNQEKIVDVAGPGGWNDPDMLVIGNFGLSWNQQVTQMALWAIMAAPLFMSNDLRHISPQAKALLQDKDVIAINQDPLGKQGYQLRQGDNFEVWERPLSGLAWAVAIINRQEIGGPRSYTIAVASLGGGVACNPACFITQLLPVKRKLGLYNWTSRLKSHINPTGTVLLQLENTMQMSLKDLL | + (+ = 0.5 to 1.5 relative activity over Rd3BB (SEQ ID NO: 13)) | + (+ = 0.5 to 1.5 relative activity over Rd3BB (SEQ ID NO: 13)) | + (+ = 0.5 to 1.5 relative activity over Rd3BB (SEQ ID NO: 13)) | + (+ = 0.5 to 1.5 relative activity over Rd3BB (SEQ ID NO: 13))
350 (protein, Synthetic Polypeptide sequence of Variant No. 350 of mature Human GLA) LDNGLARTPTMGWLHWERFMCNLDCQEEPDSCISEKLFMEMAERMVSEGWKDAGYEYLCIDDCWMAPQRDSEGRLQADPQRFPHGIRQLANYVHSKGLKFGIYADVGNKTCAGFPGSFGYYDIDAQTFADWGVDLLKFDGCYCDSLENLADGYKHMSLALNRTGRSIVYSCEWPLYMWPFQKPNYTEIRQYCNHWRNFADIDDSWASVKSILDWTSFNQETIVDVAGPGGWNDPDMLVIGNFGLSWDQQVTQMALWAIMAAPLFMSNDLRHISPQAKALLQDKDVIAINQDPLGKQGYQLRQGDNFEVWERPLSGLAWAVAVINRQEIGGPRSYTIAVASLGKGVACNPACFITQLLPVKRKLGFYNWTSRLKSHVNPTGTVLLQLENTMQMSLKDLL | + (+ = 0.5 to 1.5 relative activity over Rd3BB (SEQ ID NO: 13)) | +++ (+++ = >2.5 relative activity over Rd3BB (SEQ ID NO: 13)) | ++ (++ = >1.5 to 2.5 relative activity over Rd3BB (SEQ ID NO: 13)) | + (+ = 0.5 to 1.5 relative activity over Rd3BB (SEQ ID NO: 13))
349 (protein, Synthetic Polypeptide sequence of Variant No. 349 of mature Human GLA) LDNGLARTPTMGWLHWERFMCNLDCQEEPDSCISEKLFMEMAERMVSEGWKDAGYEYLCIDDCWMAPQRDSEGRLQADPQRFPHGIRQLANYVHSKGLKFGIYADVGNKTCAGFPGSFGYYDIDAQTFADWGVDLLKFDGCYCDSLENLADGYKHMSLALNRTGRSIVYSCEWPLYMWPFQKPNYTEIRQYCNHWRNFADIDDSWASVKSILDWTSFNQETIVDVAGPGGWNDPDMLVIGNFGLSWDQQVTQMALWAIMAAPLFMSNDLRHISPQAKALLQDKDVIAINQDPLGKQGYQLRQGDNFEVWERPLSGLAWAVAIINRQEIGGPRSYTIAVASLGKGVACNPACFITQLLPVKRKLGLYNWTSRLKSHINPTGTVLLQLENTMQMSLKDLL | + (+ = 0.5 to 1.5 relative activity over Rd3BB (SEQ ID NO: 13)) | ++ (++ = >1.5 to 2.5 relative activity over Rd3BB (SEQ ID NO: 13)) | + (+ = 0.5 to 1.5 relative activity over Rd3BB (SEQ ID NO: 13)) | + (+ = 0.5 to 1.5 relative activity over Rd3BB (SEQ ID NO: 13))
346 (protein, Synthetic Polypeptide sequence of Variant No. 346 of mature Human GLA) LDNGLARTPTMGWLHWERFMCNLDCQEEPDSCISEKLFMEMAERMVSEGWKDAGYEYLCIDDCWMAPQRDSEGRLQADPQRFPHGIRQLANYVHSIGLKLGIYADVGNKTCAGFPGSFGYYDIDAQTFADWGVDLLKFDGCYCDSLENLADGYKHMSLALNRTGRSIVYSCEWPLYMWPFQKPNYTEIRQYCNHWRNFADIDDSWASIKSILDWTSRNQERIVDVAGPGGWNDPDMLVIGNFGLSWNQQVTQMALWAIMAAPLFMSNDLRHISPQAKALLQDKDVIAINQDPLGKQGYQLRKGDNFEVWERPLSGLAWAVAIINRQEIGGPRSYTIAVASLGKGVACNPGCFITQLLPVKRQLGFYNWSSRLKSHINPTGTVLLQLENTMQMSLKDLL | + (+ = 0.5 to 1.5 relative activity over Rd3BB (SEQ ID NO: 13)) | ++ (++ = >1.5 to 2.5 relative activity over Rd3BB (SEQ ID NO: 13)) | + (+ = 0.5 to 1.5 relative activity over Rd3BB (SEQ ID NO: 13)) | + (+ = 0.5 to 1.5 relative activity over Rd3BB (SEQ ID NO: 13))
351 (protein, Synthetic Polypeptide sequence of Variant No. 351 of mature Human GLA) LDNGLARTPTMGWLHWERFMCNLDCQEEPDSCISEKLFMEMAERMVSEGWKDAGYEYLCIDDCWMAPQRDSEGRLQADPQRFPHGIRQLANYVHSKGLKFGIYADVGNKTCAGFPGSFGYYDIDAQTFADWGVDLLKFDGCYCDSLENLADGYKHMSLALNRTGRSIVYSCEWPLYMWPFQKPNYTEIRQYCNHWRNFADIDDSWASVKSILDWTSFNQETIVDVAGPGGWNDPDMLVIGNFGLSWNQQVTQMALWAIMAAPLFMSNDLRHISPQAKALLQDKDVIAINQDPLGKQGYQLRKGDNFEVWERPLSGLAWAVAIINRQEIGGPRSYTIAVASLGKGVACNPACFITQLLPVKRKLGFYNWTSRLKSHVNPTGTVLLQLENTMQMSLKDLL | + (+ = 0.5 to 1.5 relative activity over Rd3BB (SEQ ID NO: 13)) | ++ (++ = >1.5 to 2.5 relative activity over Rd3BB (SEQ ID NO: 13)) | + (+ = 0.5 to 1.5 relative activity over Rd3BB (SEQ ID NO: 13)) | + (+ = 0.5 to 1.5 relative activity over Rd3BB (SEQ ID NO: 13))
352 (protein, Synthetic Polypeptide sequence of Variant No. 352 of mature Human GLA) LDNGLARTPTMGWLHWERFMCNLDCQEEPDSCISEKLFMEMAERMVSEGWKDAGYEYLCIDDCWMAPQRDSEGRLQADPQRFPHGIRQLANYVHSKGLKFGIYADVGNKTCAGFPGSFGYYDIDAQTFADWGVDLLKFDGCYCDSLENLADGYKHMSLALNRTGRSIVYSCEWPLYMWPFQKPNYTEIRQYCNHWRNFADIDDSWASIKSILDWTSFNQEKIVDVAGPGGWNDPDMLVIGNFGLSWNQQVTQMALWAIMAAPLFMSNDLRHISPQAKALLQDKDVIAINQDPLGKQGYQLRKGDNFEVWERPLSGLAWAVAIINRQEIGGPRSYTIAVASLGKGVACNPACFITQLLPVKRKLGFYNWTSRLKSHVNPTGTVLLQLENTMQMSLKDLL | + (+ = 0.5 to 1.5 relative activity over Rd3BB (SEQ ID NO: 13)) | + (+ = 0.5 to 1.5 relative activity over Rd3BB (SEQ ID NO: 13)) | + (+ = 0.5 to 1.5 relative activity over Rd3BB (SEQ ID NO: 13)) | + (+ = 0.5 to 1.5 relative activity over Rd3BB (SEQ ID NO: 13))
347 (protein, Synthetic Polypeptide sequence of Variant No. 347 of mature Human GLA) LDNGLARTPTMGWLHWERFMCNLDCQEEPDSCISEKLFMEMAERMVSEGWKDAGYEYLCIDDCWMAPQRDSEGRLQADPQRFPHGIRQLANYVHSIGLKLGIYADVGNKTCAGFPGSFGYYDIDAQTFADWGVDLLKFDGCYCDSLENLADGYKHMSLALNRTGRSIVYSCEWPLYMWPFQKPNYTEIRQYCNHWRNFADIDDSWASIKSILDWTSFNQERIVDVAGPGGWNDPDMLVIGNFGLSWNQQVTQMALWAIMAAPLFMSNDLRHISPQAKALLQDKDVIAINQDPLGKQGYQLRQGDNFEVWERPLSGLAWAVAIINRQEIGGPRSYTIPVASLGKGVACNPACFITQLLPVKRKLGFYNWSSRLKSHINPTGTVLLQLENTMQMSLKDLL | − (− = <0.5 relative activity to Rd3BB (SEQ ID NO: 13)) | − (− = <0.5 relative activity to Rd3BB (SEQ ID NO: 13)) | − (− = <0.5 relative activity to Rd3BB (SEQ ID NO: 13)) | − (− = <0.5 relative activity to Rd3BB (SEQ ID NO: 13))
